In paper PMC4363599, “A Purification Method for a Molecular Complex in Which a Scaffold Molecule Is Fully Loaded with Heterogeneous Molecules”:

B1: fBCD35g immobilized on resin (XNA)
RNA: GGUUCAGCUGAGGCGAAAGCCGGUGAUGCUGAAUC
modifications: 2'-fluoro on all pyrimidines
B2: BCD35 2'-fPy-RNA (XNA)
RNA: GGUUCAGCUGACUCGAAAGGGCGUGAUGCUGAAUC
modifications: 2'-fluoro on all pyrimidines

Key:
[1] = target: Alexa Fluor 633-labelled L7Ae (UniProt O29494 1-119); test: pull-down; fBCD35g resin removes most free L7Ae; SPR as in ref 9 (L7Ae chip, RNA analyte); resin and plate assays in assay buffer at room temperature; buffer composition, salt and pH not given in the material; details: protein: recombinant; tags: His tag; Alexa Fluor 633 by amine coupling; label: resin-immobilized
[2] = target: L7Ae (UniProt O29494 1-119); test: SPR; no signal up to 2 uM RNA; SPR as in ref 9 (L7Ae chip, RNA analyte); resin and plate assays in assay buffer at room temperature; buffer composition, salt and pH not given in the material; details: protein: recombinant; tags: His tag (pET28b-His-L7Ae-cmyc-His named as the L7Ae expression plasmid); immobilized on SPR chip
Sequence of L7Ae (O29494 whole entry): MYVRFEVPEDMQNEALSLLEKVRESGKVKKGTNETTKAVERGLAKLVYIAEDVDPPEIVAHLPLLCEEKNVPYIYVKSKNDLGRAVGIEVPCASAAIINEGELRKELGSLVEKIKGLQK

Sequence of Alexa Fluor 633-labelled L7Ae (O29494 whole entry): as above

Binder	binding result [1]	binding result [2]
B1	binds	–
B2	–	no binding
